Target: Human type 1 atelo-collagen (UniProt P02452)
Sequence (P02452 179-1192, chain 1 of 2): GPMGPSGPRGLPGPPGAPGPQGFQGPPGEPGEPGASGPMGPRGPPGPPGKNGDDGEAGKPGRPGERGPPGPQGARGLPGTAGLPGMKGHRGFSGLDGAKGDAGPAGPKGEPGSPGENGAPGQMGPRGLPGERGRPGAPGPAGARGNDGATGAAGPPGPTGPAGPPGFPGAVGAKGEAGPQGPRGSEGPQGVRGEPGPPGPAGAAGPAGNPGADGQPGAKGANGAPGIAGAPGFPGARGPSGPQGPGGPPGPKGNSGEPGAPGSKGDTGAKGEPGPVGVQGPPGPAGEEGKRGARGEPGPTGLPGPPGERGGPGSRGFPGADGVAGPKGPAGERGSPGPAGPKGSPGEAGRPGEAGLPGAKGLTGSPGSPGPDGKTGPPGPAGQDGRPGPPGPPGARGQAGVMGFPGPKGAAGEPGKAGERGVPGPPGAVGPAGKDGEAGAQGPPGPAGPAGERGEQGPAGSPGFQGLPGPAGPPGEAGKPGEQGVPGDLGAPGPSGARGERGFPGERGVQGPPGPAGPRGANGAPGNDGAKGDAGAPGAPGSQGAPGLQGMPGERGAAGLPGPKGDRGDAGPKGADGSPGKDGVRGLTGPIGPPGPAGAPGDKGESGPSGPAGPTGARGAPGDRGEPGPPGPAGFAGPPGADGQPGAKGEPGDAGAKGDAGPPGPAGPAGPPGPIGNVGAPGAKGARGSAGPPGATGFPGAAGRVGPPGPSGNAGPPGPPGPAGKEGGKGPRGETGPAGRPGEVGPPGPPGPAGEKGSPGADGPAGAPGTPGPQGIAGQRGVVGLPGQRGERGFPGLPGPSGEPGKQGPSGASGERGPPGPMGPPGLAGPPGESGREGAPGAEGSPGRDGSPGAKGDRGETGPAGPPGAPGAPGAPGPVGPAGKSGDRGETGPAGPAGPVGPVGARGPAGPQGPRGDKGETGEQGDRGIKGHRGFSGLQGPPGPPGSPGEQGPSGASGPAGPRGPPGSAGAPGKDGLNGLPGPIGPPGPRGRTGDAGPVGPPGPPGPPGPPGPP
Sequence (chain, as listed by the source, chain 2 of 2): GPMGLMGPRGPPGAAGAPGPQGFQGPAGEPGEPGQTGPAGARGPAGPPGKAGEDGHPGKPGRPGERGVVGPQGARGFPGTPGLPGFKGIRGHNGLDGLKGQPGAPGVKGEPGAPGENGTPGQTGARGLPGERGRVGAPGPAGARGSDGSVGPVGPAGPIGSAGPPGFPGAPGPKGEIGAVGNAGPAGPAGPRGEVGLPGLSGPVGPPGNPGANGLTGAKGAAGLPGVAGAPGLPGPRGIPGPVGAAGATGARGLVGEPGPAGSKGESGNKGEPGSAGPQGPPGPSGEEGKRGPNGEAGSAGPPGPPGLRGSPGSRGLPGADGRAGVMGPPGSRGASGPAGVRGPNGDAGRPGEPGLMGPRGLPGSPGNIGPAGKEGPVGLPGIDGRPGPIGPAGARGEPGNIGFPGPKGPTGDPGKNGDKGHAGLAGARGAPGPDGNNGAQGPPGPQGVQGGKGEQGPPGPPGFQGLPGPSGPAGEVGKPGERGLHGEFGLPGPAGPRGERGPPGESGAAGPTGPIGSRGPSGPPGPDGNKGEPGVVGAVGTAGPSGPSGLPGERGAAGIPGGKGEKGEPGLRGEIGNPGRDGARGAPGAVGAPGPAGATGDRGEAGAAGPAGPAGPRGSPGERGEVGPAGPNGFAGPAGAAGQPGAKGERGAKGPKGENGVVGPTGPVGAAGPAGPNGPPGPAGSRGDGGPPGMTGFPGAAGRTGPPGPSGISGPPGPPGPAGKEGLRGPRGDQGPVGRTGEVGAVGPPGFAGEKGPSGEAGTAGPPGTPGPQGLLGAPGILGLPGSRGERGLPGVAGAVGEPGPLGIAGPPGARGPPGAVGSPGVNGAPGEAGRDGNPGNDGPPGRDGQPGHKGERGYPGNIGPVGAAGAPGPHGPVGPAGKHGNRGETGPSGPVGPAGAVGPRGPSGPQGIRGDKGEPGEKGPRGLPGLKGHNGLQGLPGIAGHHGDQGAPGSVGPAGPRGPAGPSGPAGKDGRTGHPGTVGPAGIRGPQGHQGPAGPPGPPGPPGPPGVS

Substance: matrix metalloproteinase-1 (MMP-1), activated with 2 mM APMA
- reduction in the full length alpha1(I) and alpha2(I) chains (SDS-PAGE, band quantitation): an approximately 7.4-fold (over 80%) reduction in the full length of these chains when collagen was treated with MMP-1

Reference: US20230048200
